Experimental data reported in US20160251438A1 (LUDWIG INSTITUTE FOR CANCER RESEARCH, published 2016).

How the values were obtained:
[1] = molecular target: GARP / TGF-β1 Y284A complex (human, UniProt Q14392 20-662; P01137 30-390); assay: flow cytometry titration on transfected 293T cells; grade of Reduced avidity read by footnote 3
Protocol: (§1) Intensities of staining at each concentration of antibody relative to the maximal intensity measured at 5 μg/ml were determined as follows:
(§2) The relative staining intensities were plotted according to the concentration of antibody used for staining, and a non-linear regression analysis was used with the Prism software to determine an EC₅₀ value for binding of the antibody to the WT and to each of the various mutant GARP/TGF-β1 complexes. If the ratio between the EC₅₀ measured on the mutant and the EC₅₀ measured on the WT was >2, the mutation was considered to induce a reduced avidity for binding by the antibody. The ratio of EC₅₀ (mutant vs WT) for MHG-8 and LHG-10 are indicated below each mutation on FIG. 19, parts A and B, respectively.

[2] = molecular target: T1, GARP S138G / TGF-β1 complex (human, UniProt Q14392 20-662; P01137 30-390); assay: as above
T1 sequence (Q14392 20-662 S138G limits assumed, chain 1 of 2): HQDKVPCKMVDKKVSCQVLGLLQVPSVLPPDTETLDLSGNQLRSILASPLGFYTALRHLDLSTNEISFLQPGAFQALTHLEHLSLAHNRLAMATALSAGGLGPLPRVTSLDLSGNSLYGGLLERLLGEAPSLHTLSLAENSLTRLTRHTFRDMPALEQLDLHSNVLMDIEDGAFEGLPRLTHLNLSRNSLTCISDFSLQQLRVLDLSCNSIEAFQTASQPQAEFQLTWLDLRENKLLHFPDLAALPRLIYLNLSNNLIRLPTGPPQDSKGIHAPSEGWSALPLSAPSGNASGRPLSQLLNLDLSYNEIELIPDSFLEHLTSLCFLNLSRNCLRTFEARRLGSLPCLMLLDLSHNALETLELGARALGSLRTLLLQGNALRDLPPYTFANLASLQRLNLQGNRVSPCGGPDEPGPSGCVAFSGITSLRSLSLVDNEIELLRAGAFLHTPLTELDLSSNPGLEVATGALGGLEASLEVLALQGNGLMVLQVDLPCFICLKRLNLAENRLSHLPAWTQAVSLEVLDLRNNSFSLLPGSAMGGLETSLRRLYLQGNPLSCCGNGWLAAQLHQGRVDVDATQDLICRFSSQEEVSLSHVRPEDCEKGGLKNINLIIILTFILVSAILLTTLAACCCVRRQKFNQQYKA
T1 sequence (P01137 30-390 limits assumed, stated change not applied, chain 2 of 2): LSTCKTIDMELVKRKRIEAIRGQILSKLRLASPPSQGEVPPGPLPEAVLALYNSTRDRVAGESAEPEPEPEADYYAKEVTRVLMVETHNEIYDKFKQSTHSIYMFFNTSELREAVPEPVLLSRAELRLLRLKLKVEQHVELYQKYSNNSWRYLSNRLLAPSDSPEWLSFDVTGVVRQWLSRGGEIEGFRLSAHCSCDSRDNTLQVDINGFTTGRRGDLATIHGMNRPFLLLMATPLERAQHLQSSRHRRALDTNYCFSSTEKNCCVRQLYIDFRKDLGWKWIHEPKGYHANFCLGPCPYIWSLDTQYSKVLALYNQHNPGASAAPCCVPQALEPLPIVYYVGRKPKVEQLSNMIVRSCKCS
Protocol: as §1, §2

[3] = molecular target: GARP R143Y / TGF-β1 complex (human, UniProt Q14392 20-662; P01137 30-390); assay: as above
Protocol: as §1, §2

[4] = molecular target: GARP G139N / TGF-β1 complex (human, UniProt Q14392 20-662; P01137 30-390); assay: as above
Protocol: as §1, §2

[5] = molecular target: GARP / TGF-β1 E146R complex (human, UniProt Q14392 20-662; P01137 30-390); assay: as above
Protocol: as §1, §2

[6] = molecular target: T2, GARP E189A / TGF-β1 complex (human, UniProt Q14392 20-662; P01137 30-390); assay: as above
T2 sequence (Q14392 20-662 E189A limits assumed, chain 1 of 2): as the sequence (Q14392 20-662 S138G limits assumed, chain 1 of 2) above, with G119S, E170A counted along it
T2 sequence (P01137 30-390 limits assumed, chain 2 of 2): as the sequence (P01137 30-390 limits assumed, stated change not applied, chain 2 of 2) above
Protocol: as §1, §2

[7] = molecular target: T3, GARP G118L/G119L / TGF-β1 complex (human, UniProt Q14392 20-662; P01137 30-390); assay: as above
T3 sequence (Q14392 20-662 G118L/G119L limits assumed, chain 1 of 2): as the sequence (Q14392 20-662 S138G limits assumed, chain 1 of 2) above, with G99L, G100L, G119S counted along it
T3 sequence (P01137 30-390 limits assumed, chain 2 of 2): as the sequence (P01137 30-390 limits assumed, stated change not applied, chain 2 of 2) above
Protocol: as §1, §2

[8] = molecular target: T4, GARP / TGF-β1 H270Y complex (human, UniProt Q14392 20-662; P01137 30-390); assay: as above
T4 sequence (Q14392 20-662 limits assumed, chain 1 of 2): as the sequence (Q14392 20-662 S138G limits assumed, chain 1 of 2) above, with G119S counted along it
T4 sequence (P01137 30-390 H270Y limits assumed, chain 2 of 2): as the sequence (P01137 30-390 limits assumed, stated change not applied, chain 2 of 2) above, with H241Y counted along it
Protocol: as §1, §2

[9] = molecular target: GARP L140K/E142L / TGF-β1 complex (human, UniProt Q14392 20-662; P01137 30-390); assay: as above
Protocol: as §1, §2

[10] = molecular target: GARP Y137H/S138G/G139N / TGF-β1 complex (human, UniProt Q14392 20-662; P01137 30-390); assay: as above
Protocol: as §1, §2

[11] = molecular target: GARP R166M/H167E / TGF-β1 complex (human, UniProt Q14392 20-662; P01137 30-390); assay: FACS titration on transfected 293T; EC50 mutant / EC50 WT [cont.) B]
Protocol: as §1, §2

[12] = molecular target: GARP T162D / TGF-β1 complex (human, UniProt Q14392 20-662; P01137 30-390); assay: as above
Protocol: as §1, §2

[13] = molecular target: GARP R163E / TGF-β1 complex (human, UniProt Q14392 20-662; P01137 30-390); assay: as above
Protocol: as §1, §2

[14] = molecular target: T1, GARP S138G / TGF-β1 complex; assay: as above
Protocol: as §1, §2

[15] = molecular target: GARP / TGF-β1 R58A complex (human, UniProt Q14392 20-662; P01137 30-390); assay: as above
Protocol: as §1, §2

[16] = molecular target: GARP Y137H / TGF-β1 complex (human, UniProt Q14392 20-662; P01137 30-390); assay: as above
Protocol: as §1, §2

[17] = molecular target: T2, GARP E189A / TGF-β1 complex; assay: as above
Protocol: as §1, §2

[18] = molecular target: T3, GARP G118L/G119L / TGF-β1 complex; assay: as above
Protocol: as §1, §2

[19] = molecular target: T4, GARP / TGF-β1 H270Y complex; assay: as above
Protocol: as §1, §2

[20] = molecular target: GARP T165A / TGF-β1 complex (human, UniProt Q14392 20-662; P01137 30-390); assay: as above
Protocol: as §1, §2

[21] = molecular target: GARP / TGF-β1 Q269Y complex (human, UniProt Q14392 20-662; P01137 30-390); assay: as above
Protocol: as §1, §2

- ratio of EC50 (mutant vs WT) [1]: ≤ 2 ratio
- ratio of EC50 (mutant vs WT) [2]: ≤ 2 ratio
- ratio of EC50 (mutant vs WT) [3]: ≤ 2 ratio
- ratio of EC50 (mutant vs WT) [4]: ≤ 2 ratio
- ratio of EC50 (mutant vs WT) [5]: ≤ 2 ratio
- ratio of EC50 (mutant vs WT) [6]: ≤ 2 ratio
- ratio of EC50 (mutant vs WT) [7]: ≤ 2 ratio
- ratio of EC50 (mutant vs WT) [8]: ≤ 2 ratio
- ratio of EC50 (mutant vs WT) [9]: ≤ 2 ratio
- ratio of EC50 (mutant vs WT) [10]: > 2 ratio
- Ratio of EC50 (mutant / wt) [11]: 1.5
- Ratio of EC50 (mutant / wt) [12]: 2.5
- Ratio of EC50 (mutant / wt) [13]: 4.1
- Ratio of EC50 (mutant / wt) [14]: 0.6
- Ratio of EC50 (mutant / wt) [15]: 1.5
- Ratio of EC50 (mutant / wt) [16]: 0.6
- Ratio of EC50 (mutant / wt) [17]: 0.8
- Ratio of EC50 (mutant / wt) [18]: 0.8
- Ratio of EC50 (mutant / wt) [19]: 0.7
- Ratio of EC50 (mutant / wt) [20]: 1
- Ratio of EC50 (mutant / wt) [21]: 0.8
B1: LHG-10 (antibody, human IgG1, V domains shown)
VH: EVQLVQPGAELRNSGASVKVSCKASGYRFTSYYIDWVRQAPGQGLEWMGRIDPEDGGTKYAQKFQGRVTFTADTSTSTAYVELSSLRSEDTAVYYCARNEWETVVVGDLMYEYEYWGQGTQVTVSS
VL: DIQMTQSPTSLSASLGDRVTITCQASQSISSYLAWYQQKPGQAPKLLIYGASRLQTGVPSRFSGSGSGTSFTLTISGLEAEDAGTYYCQQYDSLPVTFGQGTKVELK
notes: llama-derived V regions in a full human IgG1
